Measurements published in patent US7786083B2, “Metastin derivatives and use thereof” (Takeda Pharmaceutical Company Limited, priority 2006, dated 2010).
[ ]: non-standard residue; d: D form. Phe(3-Me) = Cc1cccc(C[C@H](N)C(=O)O)c1; Phe(4-Me) = Cc1ccc(C[C@H](N)C(=O)O)cc1; Phe(2-Me) = Cc1ccccc1C[C@H](N)C(=O)O; Arg(Me) = CNC(=N)NCCC[C@H](N)C(=O)O; Dap(CONH2) = NC(=O)NC[C@H](N)C(=O)O; Ala(cPr) = N[C@@H](CC1CC1)C(=O)O; Hyp = O=C(O)[C@@H]1C[C@@H](O)CN1; αMeF = C[C@](N)(Cc1ccccc1)C(=O)O; 2Pal = N[C@@H](Cc1ccccn1)C(=O)O; 3Pal = N[C@@H](Cc1cccnc1)C(=O)O; 4Pal = N[C@@H](Cc1ccncc1)C(=O)O; Cha = N[C@@H](CC1CCCCC1)C(=O)O

B1: des(1)-Ac-[D-Tyr2,Hyp3,Thr5,Val7,Arg(Me)9,Trp10]MS10 (peptide)
peptide: Ac-[dY][Hyp]NTFVL[Arg(Me)]W-NH2
B2: des(1)-Ac-[D-Tyr2,Hyp3,Thr5,Cha6,Gly7Ψ((E)CH═CH)Leu8,Arg(Me)9,Trp10]MS10 (peptide)
peptide: Ac-[dY][Hyp]NT[Cha]GL[Arg(Me)]W-NH2
modifications: also: Gly6-Leu7 -CONH- replaced by (E)-CH=CH-
B3: des(1)-Ac-[D-Tyr2,Hyp3,Thr5,Phe6Ψ((E)CH═CH)Gly7,Arg(Me)9,Trp10]MS10 (peptide)
peptide: Ac-[dY][Hyp]NTFGL[Arg(Me)]W-NH2
modifications: also: Phe5-Gly6 -CONH- replaced by (E) CH=CH
B4: des(1)-Ac-[D-Tyr2,Glu3,Thr5,Cha6,Gly7Ψ((E)CH═CH)Leu8,Arg(Me)9,Trp10]MS10 (peptide)
peptide: Ac-[dY]ENT[Cha]GL[Arg(Me)]W-NH2
modifications: also: Gly6-Leu7 -CONH- replaced by (E) type alkene
B5: des(1)-Ac-[D-Tyr2,Hyp3,Thr5,Pya(3)6,Arg(Me)9,Trp10]MS10 (peptide)
peptide: Ac-[dY][Hyp]NT[3Pal]GL[Arg(Me)]W-NH2
B6: des(1)-Ac-[D-Tyr2,Hyp3,Alb4,Thr5,Arg(Me)9,Trp10]MS10 (peptide)
peptide: Ac-[dY][Hyp][Dap(CONH2)]TFGL[Arg(Me)]W-NH2
B7: des(1)-Ac-[D-Tyr2,Hyp3,Thr5,Pya(2)6,Arg(Me)9,Trp10]MS10 (peptide)
peptide: Ac-[dY][Hyp]NT[2Pal]GL[Arg(Me)]W-NH2
B8: des(1)-Ac-[D-Tyr2,Hyp3,Thr5,Phe(3Me)6,Arg(Me)9,Trp10]MS10 (peptide)
peptide: Ac-[dY][Hyp]NT[Phe(3-Me)]GL[Arg(Me)]W-NH2
B9: des(1)-Ac-[D-Tyr2,Hyp3,Thr5,Gly7Ψ(CH2CH2)Leu8,Arg(Me)9,Trp10]MS10 (peptide)
peptide: Ac-[dY][Hyp]NTFGL[Arg(Me)]W-NH2
modifications: also: Gly6-Leu7 -CONH- replaced by -CH2CH2-
B10: des(1)-Ac-[D-Tyr2,Hyp3,Thr5,Ala7,Arg(Me)9,Trp10]MS10 (peptide)
peptide: Ac-[dY][Hyp]NTFAL[Arg(Me)]W-NH2
B11: des(1)-Ac-[D-Tyr2,Hyp3,Thr5,Phe6Ψ(CH2CH2)Gly7,Arg(Me)9,Trp10]MS10 (peptide)
peptide: Ac-[dY][Hyp]NTFGL[Arg(Me)]W-NH2
modifications: also: Phe5-Gly6 amide bond replaced by -CH2CH2-
B12: des(1)-Ac-[D-Tyr2,Hyp3,Thr5,Cha6,Ala(cPr)8,Arg(Me)9,Trp10]MS10 (peptide)
peptide: Ac-[dY][Hyp]NT[Cha]G[Ala(cPr)][Arg(Me)]W-NH2
SMILES: CNC(=N)NCCC[C@H](NC(=O)[C@H](CC1CC1)NC(=O)CNC(=O)[C@H](CC1CCCCC1)NC(=O)[C@@H](NC(=O)[C@H](CC(N)=O)NC(=O)[C@@H]1C[C@@H](O)CN1C(=O)[C@@H](Cc1ccc(O)cc1)NC(C)=O)[C@@H](C)O)C(=O)N[C@@H](Cc1c[nH]c2ccccc12)C(N)=O
B13: des(1)-Ac-[D-Tyr2,Hyp3,Thr5,Phe(2Me)6,Arg(Me)9,Trp10]MS10 (peptide)
peptide: Ac-[dY][Hyp]NT[Phe(2-Me)]GL[Arg(Me)]W-NH2
B14: des(1)-Ac-[D-Tyr2,Glu3,Thr5,Cha6,Arg(Me)9,Trp10]MS10 (peptide)
peptide: Ac-[dY]ENT[Cha]GL[Arg(Me)]W-NH2
B15: des(1)-Ac-[D-Tyr2,Hyp3,Thr5,Phe6Ψ(COCH2)Gly7,Arg(Me)9,Trp10]MS10 (peptide)
peptide: Ac-[dY][Hyp]NTFGL[Arg(Me)]W-NH2
modifications: also: Phe5-Gly6 amide bond replaced by -COCH2-
B16: des(1)-Ac-[D-Tyr2,Hyp3,Thr5,αMePhe6,Arg(Me)9,Trp10]MS10 (peptide)
peptide: Ac-[dY][Hyp]NT[αMeF]GL[Arg(Me)]W-NH2
SMILES: CNC(=N)NCCC[C@H](NC(=O)[C@H](CC(C)C)NC(=O)CNC(=O)[C@](C)(Cc1ccccc1)NC(=O)[C@@H](NC(=O)[C@H](CC(N)=O)NC(=O)[C@@H]1C[C@@H](O)CN1C(=O)[C@@H](Cc1ccc(O)cc1)NC(C)=O)[C@@H](C)O)C(=O)N[C@@H](Cc1c[nH]c2ccccc12)C(N)=O
B17: des(1)-Ac-[D-Tyr2,Glu3,Thr5,Arg(Me)9,Trp10]MS10 (peptide)
peptide: Ac-[dY]ENTFGL[Arg(Me)]W-NH2
B18: des(1)-Ac-[D-Tyr2,Hyp3,Thr5,Pya(4)6,Arg(Me)9,Trp10]MS10 (peptide)
peptide: Ac-[dY][Hyp]NT[4Pal]GL[Arg(Me)]W-NH2
B19: des(1)-Ac-[D-Tyr2,Hyp3,Alb4,Thr5,Cha6,Gly7Ψ((E)CH═CH)Leu8,Arg(Me)9,Trp10]MS10 (peptide)
peptide: Ac-[dY][Hyp][Dap(CONH2)]T[Cha]GL[Arg(Me)]W-NH2
modifications: also: Gly6-Leu7 -CONH- replaced by (E) type alkene
B20: des(1)-Ac-[D-Tyr2,Hyp3,Thr5,Arg(Me)9,Trp10]MS10 (peptide)
peptide: Ac-[dY][Hyp]NTFGL[Arg(Me)]W-NH2
B21: des(1)-Ac-[D-Tyr2,Glu3,Alb4,Thr5,Cha6,Gly7Ψ((E)CH═CH)Leu8,Arg(Me)9,Trp10]MS10 (peptide)
peptide: Ac-[dY]E[Dap(CONH2)]T[Cha]GL[Arg(Me)]W-NH2
modifications: also: Gly6-Leu7 -CONH- replaced by (E) type alkene
B22: des(1)-Ac-[D-Tyr2,Hyp3,Thr5,Phe6Ψ(CH2O)Gly7,Arg(Me)9,Trp10]MS10 (peptide)
peptide: Ac-[dY][Hyp]NTFGL[Arg(Me)]W-NH2
modifications: also: Phe5-Gly6 amide bond replaced by -CH2O-
B23: des(1)-Ac-[D-Tyr2,Hyp3,Thr5,Gly7Ψ(CH2NH)Leu8,Arg(Me)9,Trp10]MS10 (peptide)
peptide: Ac-[dY][Hyp]NTFGL[Arg(Me)]W-NH2
modifications: also: Gly6-Leu7 -CONH- replaced by -CH2NH-
B24: des(1)-Ac-[D-Tyr2,Hyp3,Thr5,Phe6Ψ((S)CHOH-CH2)Gly7,Arg(Me)9,Trp10]MS10 (peptide)
peptide: Ac-[dY][Hyp]NTFGL[Arg(Me)]W-NH2
modifications: also: Phe5-Gly6 amide bond replaced by -CH(OH)-CH2- ((S)-CHOH)
B25: des(1)-Ac-[D-Tyr2,Hyp3,Thr5,Gly7Ψ((E)CH═CH)Leu8,Arg(Me)9,Trp10]MS10 (peptide)
peptide: Ac-[dY][Hyp]NTFGL[Arg(Me)]W-NH2
modifications: also: Gly6-Leu7 -CONH- replaced by (E) CH=CH
B26: des(1)-Ac-[D-Tyr2,Glu3,Thr5,Cha6,Ala(cPr)8,Arg(Me)9,Trp10]MS10 (peptide)
peptide: Ac-[dY]ENT[Cha]G[Ala(cPr)][Arg(Me)]W-NH2
B27: des(1)-Ac-[D-Tyr2,Hyp3,Alb4,Thr5,Gly7Ψ((E)CH═CH)Leu8,Arg(Me)9,Trp10]MS10 (peptide)
peptide: Ac-[dY][Hyp][Dap(CONH2)]TFGL[Arg(Me)]W-NH2
modifications: also: Gly6-Leu7 -CONH- replaced by (E)-CH=CH-
B28: des(1)-Ac-[D-Tyr2,Hyp3,Thr5,Phe6Ψ((S)CHOH-(E)CH═)Gly7,Arg(Me)9,Trp10]MS10 (peptide)
peptide: Ac-[dY][Hyp]NTFGL[Arg(Me)]W-NH2
modifications: also: Phe5-Gly6 amide bond replaced by -CH(OH)-CH= ((S)-CHOH, (E) alkene)
B29: des(1)-Ac-[D-Tyr2,Hyp3,Thr5,Phe6Ψ((R)CHOH-(E)CH═)Gly7,Arg(Me)9,Trp10]MS10 (peptide)
peptide: Ac-[dY][Hyp]NTFGL[Arg(Me)]W-NH2
modifications: also: Phe5-Gly6 -CONH- replaced by (R)-CH(OH)-(E)CH= to Gly α carbon
B30: des(1)-Ac-[D-Tyr2,Hyp3,Thr5,Ser7,Arg(Me)9,Trp10]MS10 (peptide)
peptide: Ac-[dY][Hyp]NTFSL[Arg(Me)]W-NH2
B31: des(1)-Ac-[D-Tyr2,Hyp3,Thr5,Phe6Ψ((R)CHOH-CH2)Gly7,Arg(Me)9,Trp10]MS10 (peptide)
peptide: Ac-[dY][Hyp]NTFGL[Arg(Me)]W-NH2
modifications: also: Phe5-Gly6 -CONH- replaced by (R)-CH(OH)-CH2-
B32: des(1)-Ac-[D-Tyr2,Hyp3,Thr5,Phe(4Me)6,Arg(Me)9,Trp10]MS10 (peptide)
peptide: Ac-[dY][Hyp]NT[Phe(4-Me)]GL[Arg(Me)]W-NH2
B33: des(1)-Ac-[D-Tyr2,Hyp3,Thr5,Ala(cPr)6,Arg(Me)9,Trp10]MS10 (peptide)
peptide: Ac-[dY][Hyp]NT[Ala(cPr)]GL[Arg(Me)]W-NH2

biological target: metastin receptor (OT7T175) stably expressed on CHO/dhfr- cells (human or rat, not given); test: cell-based or functional assay

In order of rising Specific Activity (EC50 of test compound based on EC50 of Metastin (45-54)); agonist activity, intracellular calcium ion level, FLIPR (ratio to Metastin (45-54)):
1. des(1)-Ac-[D-Tyr2,Pro(4F)3,Thr5,Cha6,Ala(cPr)8,Arg(Me)9,Trp10]MS10 (peptide)  0.4
2. B19  0.4
3. B26  0.4
4. des(1)-Ac-[D-Tyr2,Hyp3,Thr5,Cha6,Ala7,Arg(Me)9,Trp10]MS10 (peptide)  0.5
5. B4  0.5
6. B6  0.5
7. B10  0.5
8. B12  0.5
9. B17  0.5
10. B21  0.5
11. B22  0.5
12. des(1)-Ac-[D-Tyr2,Hyp3,Thr5,Phe6Ψ(CH2CH2)AzaGly7,Arg(Me)9,Trp10]MS10 (peptide)  0.6
13. B2  0.6
14. B14  0.6
15. B25  0.6
16. B27  0.6
17. B30  0.6
18. B3  0.7
19. B13  0.7
20. B8  0.8
21. B9  0.8
22. B31  0.8
23. B5  0.9
24. B18  0.9
25. B32  0.9
26. B15  1.1
27. B7  1.2
28. B20  1.2
29. B24  1.2
30. des(1)-Ac-[D-Tyr2,Hyp3,Thr5,Dap7,Arg(Me)9,Trp10]MS10 (peptide)  1.3
31. B11  1.3
32. B29  1.4
33. B1  1.7
34. B28  1.7
35. B33  1.9
36. B23  2.9
37. B16  3.8
